Measurements published in the Human Domainome abundance scans (Beltran et al. 2025).
± gives the uncertainty stated by the source.

B1: Far upstream element-binding protein 3, residues 75 to 150; numbered along this chain, Q96I24 (parent)
chain: RTVITEEFKVPDKMVGFIIGRGGEQISRIQAESGCKIQIASESSGIPERPCVLTGTPESIEQAKRLLGQIVDRCRN

Variants of: B1
Test: abundance fitness (aPCA) (normalised: wild type 0, dead -1); higher = more abundant; growth selection in yeast, the domain comes from the species named
Conditions: Homo sapiens

Variant	abundance fitness
YTVITEEFKVPDKMVGFIIGRGGEQISRIQAESGCKIQIASESSGIPERPCVLTGTPESIEQAKRLLGQIVDRCRN	-0.126 ± 0.095
WTVITEEFKVPDKMVGFIIGRGGEQISRIQAESGCKIQIASESSGIPERPCVLTGTPESIEQAKRLLGQIVDRCRN	-0.2 ± 0.037
REVITEEFKVPDKMVGFIIGRGGEQISRIQAESGCKIQIASESSGIPERPCVLTGTPESIEQAKRLLGQIVDRCRN	0 ± 0.04
RKVITEEFKVPDKMVGFIIGRGGEQISRIQAESGCKIQIASESSGIPERPCVLTGTPESIEQAKRLLGQIVDRCRN	0 ± 0.043
RPVITEEFKVPDKMVGFIIGRGGEQISRIQAESGCKIQIASESSGIPERPCVLTGTPESIEQAKRLLGQIVDRCRN	-0.106 ± 0.044
RCVITEEFKVPDKMVGFIIGRGGEQISRIQAESGCKIQIASESSGIPERPCVLTGTPESIEQAKRLLGQIVDRCRN	-0.114 ± 0.046
RYVITEEFKVPDKMVGFIIGRGGEQISRIQAESGCKIQIASESSGIPERPCVLTGTPESIEQAKRLLGQIVDRCRN	-0.069 ± 0.06
RMVITEEFKVPDKMVGFIIGRGGEQISRIQAESGCKIQIASESSGIPERPCVLTGTPESIEQAKRLLGQIVDRCRN	-0.033 ± 0.046
RQVITEEFKVPDKMVGFIIGRGGEQISRIQAESGCKIQIASESSGIPERPCVLTGTPESIEQAKRLLGQIVDRCRN	-0.003 ± 0.042
RDVITEEFKVPDKMVGFIIGRGGEQISRIQAESGCKIQIASESSGIPERPCVLTGTPESIEQAKRLLGQIVDRCRN	-0.061 ± 0.053
RHVITEEFKVPDKMVGFIIGRGGEQISRIQAESGCKIQIASESSGIPERPCVLTGTPESIEQAKRLLGQIVDRCRN	-0.06 ± 0.062
RVVITEEFKVPDKMVGFIIGRGGEQISRIQAESGCKIQIASESSGIPERPCVLTGTPESIEQAKRLLGQIVDRCRN	-0.035 ± 0.033
RWVITEEFKVPDKMVGFIIGRGGEQISRIQAESGCKIQIASESSGIPERPCVLTGTPESIEQAKRLLGQIVDRCRN	-0.133 ± 0.038
RRVITEEFKVPDKMVGFIIGRGGEQISRIQAESGCKIQIASESSGIPERPCVLTGTPESIEQAKRLLGQIVDRCRN	0.014 ± 0.029
RAVITEEFKVPDKMVGFIIGRGGEQISRIQAESGCKIQIASESSGIPERPCVLTGTPESIEQAKRLLGQIVDRCRN	-0.049 ± 0.032
RGVITEEFKVPDKMVGFIIGRGGEQISRIQAESGCKIQIASESSGIPERPCVLTGTPESIEQAKRLLGQIVDRCRN	0 ± 0.029
RIVITEEFKVPDKMVGFIIGRGGEQISRIQAESGCKIQIASESSGIPERPCVLTGTPESIEQAKRLLGQIVDRCRN	0.038 ± 0.058
RFVITEEFKVPDKMVGFIIGRGGEQISRIQAESGCKIQIASESSGIPERPCVLTGTPESIEQAKRLLGQIVDRCRN	-0.031 ± 0.063

Variant	abundance fitness
RLVITEEFKVPDKMVGFIIGRGGEQISRIQAESGCKIQIASESSGIPERPCVLTGTPESIEQAKRLLGQIVDRCRN	-0.05 ± 0.034
RTTITEEFKVPDKMVGFIIGRGGEQISRIQAESGCKIQIASESSGIPERPCVLTGTPESIEQAKRLLGQIVDRCRN	-0.098 ± 0.043
RTKITEEFKVPDKMVGFIIGRGGEQISRIQAESGCKIQIASESSGIPERPCVLTGTPESIEQAKRLLGQIVDRCRN	-0.001 ± 0.05
RTLITEEFKVPDKMVGFIIGRGGEQISRIQAESGCKIQIASESSGIPERPCVLTGTPESIEQAKRLLGQIVDRCRN	-0.007 ± 0.034
RTRITEEFKVPDKMVGFIIGRGGEQISRIQAESGCKIQIASESSGIPERPCVLTGTPESIEQAKRLLGQIVDRCRN	-0.085 ± 0.027
RTDITEEFKVPDKMVGFIIGRGGEQISRIQAESGCKIQIASESSGIPERPCVLTGTPESIEQAKRLLGQIVDRCRN	-0.111 ± 0.049
RTWITEEFKVPDKMVGFIIGRGGEQISRIQAESGCKIQIASESSGIPERPCVLTGTPESIEQAKRLLGQIVDRCRN	-0.106 ± 0.035
RTEITEEFKVPDKMVGFIIGRGGEQISRIQAESGCKIQIASESSGIPERPCVLTGTPESIEQAKRLLGQIVDRCRN	-0.029 ± 0.035
RTPITEEFKVPDKMVGFIIGRGGEQISRIQAESGCKIQIASESSGIPERPCVLTGTPESIEQAKRLLGQIVDRCRN	-0.117 ± 0.043
RTIITEEFKVPDKMVGFIIGRGGEQISRIQAESGCKIQIASESSGIPERPCVLTGTPESIEQAKRLLGQIVDRCRN	0.044 ± 0.075
RTHITEEFKVPDKMVGFIIGRGGEQISRIQAESGCKIQIASESSGIPERPCVLTGTPESIEQAKRLLGQIVDRCRN	-0.155 ± 0.074
RTCITEEFKVPDKMVGFIIGRGGEQISRIQAESGCKIQIASESSGIPERPCVLTGTPESIEQAKRLLGQIVDRCRN	-0.081 ± 0.044
RTQITEEFKVPDKMVGFIIGRGGEQISRIQAESGCKIQIASESSGIPERPCVLTGTPESIEQAKRLLGQIVDRCRN	-0.084 ± 0.043
RTMITEEFKVPDKMVGFIIGRGGEQISRIQAESGCKIQIASESSGIPERPCVLTGTPESIEQAKRLLGQIVDRCRN	-0.037 ± 0.046
RTAITEEFKVPDKMVGFIIGRGGEQISRIQAESGCKIQIASESSGIPERPCVLTGTPESIEQAKRLLGQIVDRCRN	-0.064 ± 0.034
RTFITEEFKVPDKMVGFIIGRGGEQISRIQAESGCKIQIASESSGIPERPCVLTGTPESIEQAKRLLGQIVDRCRN	-0.066 ± 0.065
RTGITEEFKVPDKMVGFIIGRGGEQISRIQAESGCKIQIASESSGIPERPCVLTGTPESIEQAKRLLGQIVDRCRN	-0.166 ± 0.025
RTNITEEFKVPDKMVGFIIGRGGEQISRIQAESGCKIQIASESSGIPERPCVLTGTPESIEQAKRLLGQIVDRCRN	0.073 ± 0.093
